Legend:
Assay in all cases: cell-based or functional assay
[1] = target: TSHR with Lys183 mutated to Ala expressed in CHO cells (human) (UniProt P16473)
[2] = target: TSHR with Asp203 mutated to Ala expressed in CHO cells (human) (UniProt P16473)
[3] = target: TSHR with Lys58 mutated to Ala expressed in CHO cells (human) (UniProt P16473)
[4] = target: TSHR with Asp43 mutated to Ala, expressed in CHO cells (human) (UniProt P16473)
[5] = target: TSHR with Asp276 mutated to Ala, expressed in CHO cells (human) (UniProt P16473)

Cyclic AMP produced (pmol/mL), 0.01 ng/mL TSH, Experiment 2 [1]: 3.73 pmol/mL | Cyclic AMP produced (pmol/mL), 0.03 ng/mL TSH, Experiment 1 [1]: 6.94 pmol/mL | Cyclic AMP produced (pmol/mL), 0.03 ng/mL TSH, Experiment 2 [1]: 5.37 pmol/mL | Cyclic AMP produced (pmol/mL), 0.1 ng/mL TSH, Experiment 1 [1]: 13 pmol/mL | Cyclic AMP produced (pmol/mL), 0.1 ng/mL TSH, Experiment 2 [1]: 10.1 pmol/mL | Cyclic AMP produced (pmol/mL), 0.3 ng/mL TSH, Experiment 1 [1]: 35 pmol/mL | Cyclic AMP produced (pmol/mL), 0.3 ng/mL TSH, Experiment 2 [1]: 27.8 pmol/mL | Cyclic AMP produced (pmol/mL), 1 ng/mL TSH, Experiment 1 [1]: 57.2 pmol/mL | Cyclic AMP produced (pmol/mL), 1 ng/mL TSH, Experiment 2 [1]: 55.8 pmol/mL | Cyclic AMP produced (pmol/mL), 3 ng/mL TSH, Experiment 1 [1]: 69.2 pmol/mL | Cyclic AMP produced (pmol/mL), 3 ng/mL TSH, Experiment 2 [1]: 72.2 pmol/mL | Mutated/Wild type (%) of cyclic AMP produced, 0.01 ng/mL TSH, Experiment 1 [1]: 275% | Mutated/Wild type (%) of cyclic AMP produced, 0.01 ng/mL TSH, Experiment 2 [1]: 287% | Mutated/Wild type (%) of cyclic AMP produced, 0.03 ng/mL TSH, Experiment 1 [1]: 177% | Mutated/Wild type (%) of cyclic AMP produced, 0.03 ng/mL TSH, Experiment 2 [1]: 179% | Mutated/Wild type (%) of cyclic AMP produced, 0.1 ng/mL TSH, Experiment 1 [1]: 146% | Mutated/Wild type (%) of cyclic AMP produced, 0.1 ng/mL TSH, Experiment 2 [1]: 151% | Mutated/Wild type (%) of cyclic AMP produced, 0.3 ng/mL TSH, Experiment 1 [1]: 106% | Mutated/Wild type (%) of cyclic AMP produced, 0.3 ng/mL TSH, Experiment 2 [1]: 106% | Mutated/Wild type (%) of cyclic AMP produced, 1 ng/mL TSH, Experiment 1 [1]: 75% | Mutated/Wild type (%) of cyclic AMP produced, 1 ng/mL TSH, Experiment 2 [1]: 82% | Mutated/Wild type (%) of cyclic AMP produced, 3 ng/mL TSH, Experiment 1 [1]: 80% | Mutated/Wild type (%) of cyclic AMP produced, 3 ng/mL TSH, Experiment 2 [1]: 103% | Cyclic AMP produced (pmol/mL), 0.01 ng/mL TSH [2]: 5.3 pmol/mL | Cyclic AMP produced (pmol/mL), 0.03 ng/mL TSH [2]: 7.13 pmol/mL | Cyclic AMP produced (pmol/mL), 0.1 ng/mL TSH [2]: 13 pmol/mL | Cyclic AMP produced (pmol/mL), 0.3 ng/mL TSH [2]: 33.8 pmol/mL | Cyclic AMP produced (pmol/mL), 1 ng/mL TSH [2]: 58.6 pmol/mL | Cyclic AMP produced (pmol/mL), 3 ng/mL TSH [2]: 69.3 pmol/mL | Mutated/Wild type (%) of cyclic AMP produced, 0.01 ng/mL TSH [2]: 231% | Mutated/Wild type (%) of cyclic AMP produced, 0.03 ng/mL TSH [2]: 200% | Mutated/Wild type (%) of cyclic AMP produced, 0.1 ng/mL TSH [2]: 154% | Mutated/Wild type (%) of cyclic AMP produced, 0.3 ng/mL TSH [2]: 128% | Mutated/Wild type (%) of cyclic AMP produced, 1 ng/mL TSH [2]: 89% | Mutated/Wild type (%) of cyclic AMP produced, 3 ng/mL TSH [2]: 90% | % inhibition of TSH stimulation; TSH (2); Experiment 1 [3]: 0% | % inhibition of TSH stimulation; TSH (2); Experiment 2 [3]: 1% | Cyclic AMP produced; TSH 3 ng/mL; Experiment 1 [3]: 78.5 pmol/mL | Cyclic AMP produced; TSH 3 ng/mL; Experiment 2 [3]: 96.8 pmol/mL | Cyclic AMP produced; TSH (2); Experiment 1 [3]: 85.2 pmol/mL | Cyclic AMP produced; TSH (2); Experiment 2 [3]: 95.8 pmol/mL | Mutated/wild type (%) of cyclic AMP produced; TSH 3 ng/mL; Experiment 1 [3]: 114% | Mutated/wild type (%) of cyclic AMP produced; TSH 3 ng/mL; Experiment 2 [3]: 99% | Mutated/wild type (%) of cyclic AMP produced; TSH (2); Experiment 1 [3]: 115% | Mutated/wild type (%) of cyclic AMP produced; TSH (2); Experiment 2 [3]: 94% | % inhibition of TSH stimulation, TSH (2) run at the end of assay, mutated TSHR [4]: 0% | Cyclic AMP produced (pmol/mL), TSH (2) 3 ng/mL run at the end of assay, mutated TSHR [4]: 60.3 pmol/mL | Mutated/Wild type (%) of cyclic AMP produced, TSH 0.01 ng/mL [4]: 100% | Mutated/Wild type (%) of cyclic AMP produced, TSH 0.03 ng/mL [4]: 113% | Mutated/Wild type (%) of cyclic AMP produced, TSH 0.1 ng/mL [4]: 119% | Mutated/Wild type (%) of cyclic AMP produced, TSH 0.3 ng/mL [4]: 86% | Mutated/Wild type (%) of cyclic AMP produced, TSH 1 ng/mL [4]: 86% | Mutated/wild type (%) of cyclic AMP produced; TSH 3 ng/mL [4]: 88% | Mutated/wild type (%), TSH (2) 3 ng/mL run at the end of assay [4]: 65% | Cyclic AMP produced (pmol/mL), TSH 0.01 ng/mL [5]: 14.3 pmol/mL | Cyclic AMP produced (pmol/mL), TSH 0.03 ng/mL [5]: 17.6 pmol/mL | Cyclic AMP produced (pmol/mL), TSH 0.1 ng/mL [5]: 21.7 pmol/mL | Cyclic AMP produced (pmol/mL), TSH 0.3 ng/mL [5]: 45.6 pmol/mL | Cyclic AMP produced (pmol/mL), TSH 1 ng/mL [5]: 68.3 pmol/mL | Cyclic AMP produced (pmol/mL), TSH 3 ng/mL [5]: 76 pmol/mL | Experiment 1; % inhibition of TSH stimulation; TSH (2) 3 ng/mL, run at the end of assay [5]: 6% | Experiment 1; Mutated/wild type (%) of cyclic AMP produced; TSH 3 ng/mL [5]: 91% | Experiment 1; Mutated/wild type (%) of cyclic AMP produced; TSH (2) 3 ng/mL, run at the end of assay [5]: 90% | Experiment 1; cyclic AMP produced; TSH 3 ng/mL [5]: 71.2 pmol/mL | Experiment 1; cyclic AMP produced; TSH (2) 3 ng/mL, run at the end of assay [5]: 67 pmol/mL | Experiment 2; % inhibition of TSH stimulation; TSH (2) 3 ng/mL, run at the end of assay [5]: 18% | Experiment 2; Mutated/wild type (%) of cyclic AMP produced; TSH 3 ng/mL [5]: 78% | Experiment 2; Mutated/wild type (%) of cyclic AMP produced; TSH (2) 3 ng/mL, run at the end of assay [5]: 66% | Experiment 2; cyclic AMP produced; TSH 3 ng/mL [5]: 74.8 pmol/mL | Experiment 2; cyclic AMP produced; TSH (2) 3 ng/mL, run at the end of assay [5]: 61.2 pmol/mL | Mutated/Wild type (%), TSH 0.01 ng/mL [5]: 583% | Mutated/Wild type (%), TSH 0.03 ng/mL [5]: 369% | Mutated/Wild type (%), TSH 0.1 ng/mL [5]: 134% | Mutated/Wild type (%), TSH 0.3 ng/mL [5]: 103% | Mutated/Wild type (%), TSH 1 ng/mL [5]: 88% | Mutated/Wild type (%), TSH 3 ng/mL [5]: 80%
Substance: TSH (ligand)
